Reference: PMC12363175 (2025)

Target: SARS-CoV-2 PT-RBD (SARS-CoV-2 prototype, UniProt P0DTC2)
Experiment: SPR

| Binder | Kd [nM] |
| --- | --- |
| raccoon dog ACE2 ectodomain fused with mFc (Fc fusion) QSTEDLVNTFLEKFNYEAEELSYQSSLASWNYNTNITDENLQKMNNAGAKWSAFYEEQSKLAKTYPLEEIQDSTVKRQLRALQHSGSSVLSADKNQRLNTILNSMSTIYSTGKACNPSNPQECLLLEPGLDDIMENSKDYNERLWAWEGWRSEVGKQLRPLYEEYVALKNEMARANNYEDYGDYWRGDYEEEWENGYNYSRNQLIDDVEHTFTQIMPLYQHLHAYVRTKLMDTYPSYISPTGCLPAHLLGDMWGRFWTNLYPLTVPFGQKPNIDVTNAMVNQSWDARKIFKEAEKFFVSVGLPNMTQGFWENSMLTEPSDSWKVVCHPTAWDLGRGDFRIKMCTKVTMDDFLTAHHEMGHIQYDMAYAAQPFLLRNGANEGFHEAVGEIMSLSAATPNHLKNIGLLPPSFFEDSETEINFLLKQALTIVGTLPFTYMLEKWRWMVFKGEIPKDQWMKTWWEMKRNIVGVVEPVPHDETYCDPASLFHVANDYSFIRYYTRTIYQFQFQEALCQIAKHEGPLHKCDISNSSEAGQKLLEMLKLGKSKPWTYALEIVVGAKNMDVRPLLNYFEPLFTWLKEQNRNSFVGWNTDWSPYADQSIKVRISLKSALGEKAYEWNNNEMYLFRSSIAYAMRQYFSEVKNQTIPFVEDNVWVSDLKPRISFNFFVTSPGNVSDIIPRTEVEEAIRMYRSRINDVFRLDDNSLEFLGIQPTLGPPYEPPVT | 424 |
| fox ACE2 ectodomain fused with mFc (Fc fusion) QSTEDLVNTFLEKFNYEAEELSYQSSLASWDYNTNISDENVQKMNNAGAKWSAFYEEQSKLAKTYPLEEIQDSTVKRQLRALQHSGSSVLSADKNQRLNTILNSMSTIYSTGKACNPSNPQECLLLEPGLDDIMENSKDYNERLWAWEGWRSEVGKQLRPLYEEYVALKNEMARANNYEDYGDYWRGDYEEEWENGYNYSRNQLIDDVEHTFTQIMPLYQHLHAYVRTKLMDTYPSYISPTGCLPAHLLGDMWGRFWTNLYPLTVPFGQKPNIDVTNAMVNQSWDARKIFKEAEKFFVSVGLPNMTQGFWENSMLTEPSDSRKVVCHPTAWDLGKGDFRIKMCTKVTMDDFLTAHHEMGHIQYDMAYAAQPFLLRNGANEGFHEAVGEIMSLSAATPNHLKNIGLLPPSFFEDSETEINFLLKQALTIVGTLPFTYMLEKWRWMVFKGEIPKDQWMKTWWEMKRNIVGVVEPVPHDETYCDPASLFHVANDYSFIRYYTRTIYQFQFQEALCQIAKHEGPLHKCDISNSSEAGQKLLEMLKLGKSKPWTYALEIVVGAKNMDVRPLLNYFEPLFTWLKEQNRNSFVGWNTDWSPYADQSIKVRISLKSALGEKAYEWNNNEMYLFRSSIAYAMRRYFSEVKKQTIPFVEDNVWVSDLKPRISFNFFVTSPGNVSDIIPRTEVEKAIRMYRGRINDVFRLDDNSLEFLGIQPTLGPPYEPPVT | 59.2 |
| dog ACE2 ectodomain fused with mFc (Fc fusion) QSTEDLVKTFLEKFNYEAEELSYQSSLASWNYNINITDENVQKMNNAGAKWSAFYEEQSKLAKTYPLEEIQDSTVKRQLRALQHSGSSVLSADKNQRLNTILNSMSTIYSTGKACNPSNPQECLLLEPGLDDIMENSKDYNERLWAWEGWRSEVGKQLRPLYEEYVALKNEMARANNYEDYGDYWRGDYEEEWENGYNYSRNQLIDDVEHTFTQIMPLYQHLHAYVRTKLMDTYPSYISPTGCLPAHLLGDMWGRFWTNLYPLTVPFGQKPNIDVTNAMVNQSWDARKIFKEAEKFFVSVGLPNMTQEFWENSMLTEPSDSRKVVCHPTAWDLGKGDFRIKMCTKVTMDDFLTAHHEMGHIQYDMAYAAQPFLLRNGANEGFHEAVGEIMSLSAATPNHLKNIGLLPPSFFEDSETEINFLLKQALTIVGTLPFTYMLEKWRWMVFKGEIPKDQWMKTWWEMKRNIVGVVEPVPHDETYCDPASLFHVANDYSFIRYYTRTIYQFQFQEALCQIAKHEGPLHKCDISNSSEAGQKLLEMLKLGKSKPWTYALEIVVGAKNMDVRPLLNYFEPLFTWLKEQNRNSFVGWNTDWSPYADQSIKVRISLKSALGEKAYEWNNNEMYLFRSSIAYAMRQYFSEVKNQTIPFVEDNVWVSDLKPRISFNFFVTSPGNVSDIIPRTEVEEAIRMYRSRINDVFRLDDNSLEFLGIQPTLGPPYEPPVT | 299 |
| pig ACE2 ectodomain fused with mFc (Fc fusion) QSTTEELAKTFLEKFNLEAEDLAYQSSLASWNYNTNITDENIQKMNDARAKWSAFYEEQSRIAKTYPLDEIQTLILKRQLQALQQSGTSGLSADKSKRLNTILNTMSTIYSSGKVLDPNNPQECLVLEPGLDEIMENSKDYSRRLWAWESWRAEVGKQLRPLYEEYVVLENEMARANNYEDYGDYWRGDYEVTGTGDYDYSRNQLMEDVERTFAEIKPLYEHLHAYVRAKLMDAYPSRISPTGCLPAHLLGDMWGRFWTNLYPLTVPFGEKPSIDVTEAMVNQSWDAIRIFEEAEKFFVSIGLPNMTQGFWNNSMLTEPGDGRKVVCHPTAWDLGKGDFRIKMCTKVTMDDFLTAHHEMGHIQYDMAYAIQPYLLRNGANEGFHEAVGEIMSLSAATPHYLKALGLLPPDFYEDSETEINFLLKQALTIVGTLPFTYMLEKWRWMVFKGEIPKEQWMQKWWEMKREIVGVVEPLPHDETYCDPACLFHVAEDYSFIRYYTRTIYQFQFHEALCRTAKHEGPLYKCDISNSTEAGQKLLQMLSLGKSEPWTLALENIVGVKTMDVKPLLSYFEPLLTWLKAQNGNSSVGWNTDWTPYADQSIKVRISLKSALGKEAYEWNDNEMYLFRSSIAYAMRNYFSSAKNETIPFGAEDVWVSDLKPRISFNFFVTSPANMSDIIPRSDVEKAISMSRSRINDAFRLDDNTLEFLGIQPTLGPPDEPP | 175 |
| rabbit ACE2 ectodomain fused with mFc (Fc fusion) QSTIEELAKTFLEKFNQEAEDLSYQSALASWDYNTNITEENVQKMNDAEAKWSAFYEEQSKLAKTYPSQEVQNLTVKRQLQALQQSGSSALSADKSKQLNTILSTMSTIYSTGKVCNQSNPQECFLLEPGLDEIMAKSTDYNERLWAWEGWRSVVGKQLRPLYEEYVVLKNEMARANNYEDYGDYWRADYEAEGADGYDYSRSQLIDDVERTFSEIKPLYEQLHAFVRTKLMDAYPSRISPTGCLPAHLLGDMWGRFWTNLYSLTVPFGQKPNIDVTDTMVNQGWDAERIFKEAEKFFVSVGLPSMTQGFWENSMLTEPGDGRKVVCHPTAWDLGKGDFRIKMCTKVTMDNFLTAHHEMGHIQYDMAYATQPFLLRNGANEGFHEAVGEIMSLSAATPEHLKSIGLLPYDFHEDNETEINFLLKQALTIVGTLPFTYMLEKWRWMVFKGEIPKEQWMQKWWEMKREIVGVVEPMPHDETYCDPAALFHVANDYSFIRYYTRTIYQFQFQEALCQAAQHEGPLHKCDISNSTEAGQKLLNMLRLGRSEPWTLALENVVGAKNMDVRPLLNYFEPLFTWLKEQNRNSFVGWSTEWTPYADQSIKVRISLKTALGDQAYEWNDSEMYLFRSSVAYAMRKYFSEVKNQTILFGEEDVRVSDLKPRISFNFFVTAPNNVNDIIPRNEVEEAISMSRSRINDIFRLDDNSLEFVGIQPTLEPPYESPVP | 74.8 |
| goat ACE2 ectodomain fused with mFc (Fc fusion) QSTTEEQAKTFLEKFNHEAEDLSYQSSLASWNYNTNITDENVQKMNEARAKWSAFYEEQSRMARTYSLEEIQNLTLKRQLKALQHSGTSVLSAEKSKRLNTILNKMSTIYSTGKVLDPNTQECLALEPGLDDIMENSRDYNRRLWAWEGWRAEVGKQLRPLYEEYVVLENEMARANNYEDYGDYWRGDYEVTGAGDYDYSRDQLMKDVERTFAEIKPLYEQLHAYVRAKLMNTYPSYISPTGCLPAHLLGDMWGRFWTNLYSLTVPFEHKPSIDVTEKMKNQSWDAERIFKEAEKFFVSIGLPYMTQGFWNNSMLTEPGDGRKVVCHPTAWDLGKGDFRIKMCTKVTMDDFLTAHHEMGHIQYDMAYATQPYLLRNGANEGFHEAVGEIMSLSAATPHYLKALGLLAPDFYEDNETEINFLLKQALTIVGTLPFTYMLEKWRWMVFKGEIPKQQWMEKWWEMKREIVGVVEPLPHDETYCDPACLFHVAEDYSFIRYYTRTIYQFQFHEALCKTAKHEGALFKCDISNSTEAGQRLLQMLRLGKSEPWTLALENIVGIKTMDVKPLLNYFEPLFTWLKEQNRNSFVGWSTEWTPYSDQSIKVRISLKSALGENAYEWNDNEMYLFRSSVAYAMRKYFLEDRNETIPFGEENVWVSDKKPRISFKFFVTSPNNVSDIIPRTEVENAIRLCRDRINDAFQLDDNSLEFLGIQPTLRPPYEPP | 451 |
